Data published in the Immune Epitope Database (IEDB).
Each block holds one sequence with its values, some of them ahead of it.

Tests used:
HLA-A*68:01 = test: IEDB peptide-MHC binding, purified MHC/competitive/radioactivity; filed as Kd, often an IC50 or EC50 that approximates it; ≥ and ≤ were set here for values at or beyond the usual limits of such assays; conditions: source organism: Vaccinia virus WR
HLA-A*33:01 = test: as above; conditions: source organism: Vaccinia virus WR
HLA-A*68:02 = test: as above; conditions: source organism: Vaccinia virus WR
HLA-B*51:01 [1] = test: as above
HLA-A*02:06 = test: as above
HLA-A*11:01 [2] = test: as above; conditions: source organism: Vaccinia virus WR
HLA-B*35:01 = test: as above
HLA-B*07:02 = test: as above
HLA-B*53:01 = test: as above
HLA-A*31:01 = test: as above; conditions: source organism: Vaccinia virus WR
HLA-A*02:02 = test: as above; conditions: source organism: Vaccinia virus WR
HLA-A*03:01 = test: as above; conditions: source organism: Vaccinia virus WR
HLA-A*02:03 = test: as above
HLA-B*54:01 = test: as above
HLA-A*02:17 = test: as above
HLA-A*02:01 = test: as above
HLA-A*11:01 [3] = test: IEDB peptide-MHC binding, purified MHC/competitive/fluorescence; ≥ and ≤ were set here for values at or beyond the usual limits of such assays
HLA-A*24:02 = test: as above; conditions: source organism: Zaire ebolavirus
HLA-B*51:01 [4] = test: IEDB peptide-MHC binding, purified MHC/competitive/fluorescence; filed as Kd, often an IC50 or EC50 that approximates it; ≥ and ≤ were set here for values at or beyond the usual limits of such assays; conditions: source organism: Mycobacterium tuberculosis CDC1551
HLA-A*32:01 = test: IEDB peptide-MHC binding, purified MHC/competitive/radioactivity; filed as Kd, often an IC50 or EC50 that approximates it; ≥ and ≤ were set here for values at or beyond the usual limits of such assays; conditions: source organism: Dengue virus 1 Brazil/97-11/1997
HLA-B*08:01 = test: as above; conditions: source organism: Hepacivirus hominis
[5] = source organism: Vaccinia virus WR
[6] = source organism: Dengue virus 1 Singapore/S275/1990
[7] = source organism: Triticum aestivum
[8] = source organism: Mammarenavirus guanaritoense
[9] = source organism: Dengue virus 2 Jamaica/1409/1983
[10] = source organism: SARS coronavirus Tor2
[11] = source organism: Dengue virus 1 Brazil/97-11/1997
[12] = source organism: Hepacivirus hominis

Sequence: YIIRVTTEL
- Kd (HLA-A*68:01): ≥ 64600 nM
- Kd (HLA-A*33:01): ≥ 77700 nM
- Kd (HLA-A*68:02): 147 nM
- Kd (HLA-B*51:01 [1]; [5]): 14600 nM
- Kd (HLA-A*02:06; [5]): 18.1 nM
- Kd (HLA-A*11:01 [2]): ≥ 77900 nM
- Kd (HLA-B*35:01; [5]): 14600 nM
- Kd (HLA-B*07:02; [5]): 521 nM
- Kd (HLA-B*53:01; [5]): ≥ 36700 nM
- Kd (HLA-A*31:01): ≥ 77900 nM
- Kd (HLA-A*02:02): 0.856 nM
- Kd (HLA-A*03:01): ≥ 78000 nM
- Kd (HLA-A*02:03; [5]): 17.6 nM
- Kd (HLA-B*54:01; [5]): ≥ 78100 nM

Sequence: FSLGLLCISI
- Kd (HLA-A*02:17; [6]): 942 nM
- Kd (HLA-A*02:01; [6]): 7.58 nM
- Kd (HLA-B*51:01 [1]; [6]): ≥ 40800 nM
- Kd (HLA-A*02:06; [6]): 2.6 nM

Sequence: VPSVNEYHML
- Kd (HLA-B*51:01 [1]; [5]): ≥ 52200 nM
- Kd (HLA-B*35:01; [5]): 4410 nM
- Kd (HLA-B*07:02; [5]): 1210 nM
- Kd (HLA-B*53:01; [5]): 2170 nM
- Kd (HLA-B*54:01; [5]): ≥ 69900 nM

Sequence: VTLNASQYA
- IC50 (HLA-A*11:01 [3]; source organism: Vaccinia virus Copenhagen): ≥ 227000 nM

Sequence: VILFIMFMLI
- Kd (HLA-A*68:01): 113 nM
- Kd (HLA-A*33:01): 514 nM
- Kd (HLA-A*68:02): 1080 nM
- Kd (HLA-B*51:01 [1]; [5]): 7570 nM
- Kd (HLA-A*02:06; [5]): 1410 nM
- Kd (HLA-A*11:01 [2]): 353 nM
- Kd (HLA-B*07:02; [5]): 5480 nM
- Kd (HLA-B*53:01; [5]): 1700 nM
- Kd (HLA-A*31:01): 128 nM
- Kd (HLA-A*02:02): 722 nM
- Kd (HLA-A*03:01): 81 nM
- Kd (HLA-A*02:03; [5]): 769 nM
- Kd (HLA-B*54:01; [5]): 804 nM

- Kd (HLA-B*51:01 [1]; [7]): 2.85 nM
- Kd (HLA-B*35:01; [7]): 2.53 nM
- Kd (HLA-B*07:02; [7]): 69.3 nM
- Kd (HLA-B*53:01; [7]): 16.1 nM
- Kd (HLA-B*54:01; [7]): 742 nM
Sequence: LPYPQPQPF

Sequence: TPVSMTYLY
- Kd (HLA-B*51:01 [1]; [5]): ≥ 77500 nM
- Kd (HLA-B*35:01; [5]): 0.0662 nM
- Kd (HLA-B*07:02; [5]): 170 nM
- Kd (HLA-B*54:01; [5]): 972 nM

Sequence: QLWATLLSL
- Kd (HLA-A*02:17; [6]): 50.6 nM
- Kd (HLA-A*02:01; [6]): 1.16 nM

Sequence: LDGQQFYWP
- IC50 (HLA-A*11:01 [3]; source organism: Zaire ebolavirus): ≥ 150000 nM
- IC50 (HLA-A*24:02): ≥ 210000 nM

Sequence: IPFIAYFVLM
- Kd (HLA-A*68:01): 1480 nM
- Kd (HLA-A*33:01): 1470 nM
- Kd (HLA-A*02:01; [5]): 1330 nM
- Kd (HLA-A*68:02): 9330 nM
- Kd (HLA-B*51:01 [1]; [5]): 2230 nM
- Kd (HLA-A*02:06; [5]): 7870 nM
- Kd (HLA-A*11:01 [2]): 4520 nM
- Kd (HLA-B*35:01; [5]): 1210 nM
- Kd (HLA-B*07:02; [5]): ≥ 39600 nM
- Kd (HLA-B*53:01; [5]): 1300 nM
- Kd (HLA-A*31:01): 652 nM
- Kd (HLA-A*02:02): 3190 nM
- Kd (HLA-A*03:01): 654 nM
- Kd (HLA-A*02:03; [5]): 2050 nM
- Kd (HLA-B*54:01; [5]): 2000 nM

Sequence: LPIFSEFVL
- Kd (HLA-B*51:01 [1]; [8]): 18500 nM
- Kd (HLA-B*35:01; [8]): 8.59 nM
- Kd (HLA-B*07:02; [8]): 217 nM
- Kd (HLA-B*53:01; [8]): 55.8 nM
- Kd (HLA-B*54:01; [8]): 491 nM

Sequence: LPPGSDEHI
- Kd (HLA-B*51:01 [4]): ≥ 20000 nM

Sequence: APIKEFKAKI
- Kd (HLA-B*51:01 [1]; [5]): ≥ 22400 nM
- Kd (HLA-B*35:01; [5]): ≥ 41400 nM
- Kd (HLA-B*07:02; [5]): 20.2 nM
- Kd (HLA-B*53:01; [5]): 12000 nM
- Kd (HLA-B*54:01; [5]): 11200 nM

Sequence: SQNSTEGRR
- IC50 (HLA-A*11:01 [3]; source organism: Sudan ebolavirus): 22400 nM

Sequence: MLLILCVTQV
- Kd (HLA-A*02:17; [9]): 158 nM
- Kd (HLA-A*02:01; [9]): 4.15 nM
- Kd (HLA-A*02:06; [9]): 7.91 nM
- Kd (HLA-A*02:03; [9]): 18.2 nM

Sequence: HPLADNKFAL
- Kd (HLA-B*51:01 [1]; [10]): 991 nM
- Kd (HLA-B*35:01; [10]): 185 nM
- Kd (HLA-B*07:02; [10]): 97.1 nM
- Kd (HLA-B*53:01; [10]): 783 nM
- Kd (HLA-B*54:01; [10]): 7110 nM

Sequence: IMAIGIVSI
- Kd (HLA-A*02:17; [11]): 699 nM
- Kd (HLA-A*32:01): 77.6 nM
- Kd (HLA-A*02:01; [11]): 13.2 nM
- Kd (HLA-A*02:03; [11]): 13.4 nM

Sequence: IILEFFLIV
- Kd (HLA-A*02:17; [9]): 89.8 nM
- Kd (HLA-A*02:06; [9]): 0.384 nM

Sequence: RPALVFDIT
- Kd (HLA-B*51:01 [1]; [12]): ≥ 30700 nM
- Kd (HLA-B*35:01; [12]): 2080 nM
- Kd (HLA-B*08:01): 2910 nM
- Kd (HLA-B*53:01; [12]): ≥ 50200 nM
- Kd (HLA-B*54:01; [12]): 95.4 nM
